The record followed here is patent US6410775.

Bridge positions count the residues as written; N and C are the ends. Square brackets hold non-standard residues; d marks the D form. Ends that are not written are not given here. NMeL = CN[C@@H](CC(C)C)C(=O)O; NMeV = CN[C@H](C(=O)O)C(C)C; ATU = not defined here; Sar = CNCC(=O)O

Assay [1] deals with ACA-6501 aPL antibody. Put plainly: competitive ELISA I50; antibody not given, ACA-6501 serum on CL/β2-GPI assumed (Ex. 4B).
Assay [2] addresses ACA-7005 aPL antibody. The experiment in a line: competitive ELISA on CL/β2-GPI plates, peptide monomer 200 µg/mL, affinity-purified ACA. (An ELISA detects its analyte on a solid surface through an enzyme-linked reagent.)
Assay [3] deals with ACA-6626 aPL antibody. The assay is described as above.
The target of assay [4] is ACA-7004 aPL antibody. Described as above.
In assay [5] the target is ACA-6641 aPL antibody. Described as above.
Assay [6] concerns the target ACA-6903 aPL antibody. The description is as above.
For assay [7], the target named is ACA-6701 aPL antibody. Described as above.
Assay [8] has as its target ACA-6501 aPL antibody. Described as above.
Assay [9] addresses ACA-6644 aPL antibody. The description is as above.
For assay [10], the target named is ACA-6638 aPL antibody. Described as above.
In assay [11] the target is nine affinity purified ACA antibodies. Put plainly: competitive ELISA on CL/β2-GPI plates, peptide monomer 200 µg/mL; average of nine ACA.
Assay [12] has as its target ACA-6701 aPL antibody. Put plainly: fluorescence polarization. Background: Polarisation of emitted light reports the rotation of a fluorescent probe.
Assay [13] addresses ACA-6701 aPL antibody. The experiment in a line: competitive fluorescence polarization (cFP), displacement of CB2*-F.
In assay [14] the target is ACA-7005 aPL antibody. The experiment in a line: competitive ELISA on CL/β2-GPI plates, peptide monomer 1 mg/mL, affinity-purified ACA.
In assay [15] the target is ACA-6626 aPL antibody. The description is as above.
In assay [16] the target is ACA-7004 aPL antibody. The assay is described as above.
Assay [17] concerns the target ACA-6641 aPL antibody. The assay is described as above.
For assay [18], the target named is ACA-6903 aPL antibody. The description is as above.
The target in assay [19] is ACA-6701 aPL antibody. The assay is described as above.
Assay [20] has as its target ACA-6501 aPL antibody. The assay is described as above.
In assay [21] the target is ACA-6644 aPL antibody. Described as above.
Assay [22] concerns the target ACA-6638 aPL antibody. Described as above.
The target in assay [23] is nine affinity purified ACA antibodies. The experiment in a line: competitive ELISA on CL/β2-GPI plates, peptide monomer 1 mg/mL; average of nine ACA.

The IC50 is the concentration that gives 50% inhibition. Lower therefore signals inhibition by little substance. For the molecule CLGVLG[dK][dL]C (not fully specified (bridges); cysteine pairing not given here) [3G3 D amino acids 18: CLGVLG-dK-dL-C], in the assay with ACA-6501 aPL antibody [1], the IC50 stood at 150 µg/mL.

B1: 3G3 others 2: Y-ATU-… (peptide)
peptide: {Tyr-ATU}-CLGVLGKLC
modifications: not fully specified (bridges); printed as Y-ATU-CLGVLGKLC; cysteine pairing not given here; reading uncertain
B1 gave an IC50 in the assay with ACA-6501 aPL antibody [1] of 170 µg/mL.

Consider GILALDYVGG [peptide ACA-6644/CBf …], for which the percent inhibition in the assay with ACA-7005 aPL antibody [2] amounted to 57%; with ACA-6626 aPL antibody [3] it was 37%; with ACA-7004 aPL antibody [4], 54%; in the assay with ACA-6641 aPL antibody [5] it was 28%; with ACA-6903 aPL antibody [6] it was 43%; with ACA-6701 aPL antibody [7], 22%. The figures for the percent inhibition in the assay with ACA-6501 aPL antibody [8], with ACA-6644 aPL antibody [9] and with ACA-6638 aPL antibody [10] were 37%, 18% and 60%, respectively. The percent inhibition (Ave.) in assay [11] came to 39%.

On to CLGVLGKLC (not fully specified; "TGR resin" printed after the C-terminus) [3G3 others 3: … TGR resin], for which the IC50 in the assay with ACA-6501 aPL antibody [1] came to 500 µg/mL.

In turn, CLGVL[dA]KLC (not fully specified (bridges); cysteine pairing not given here) [3G3 D amino acids 22: CLGVL-dA-KLC] showed an IC50 with ACA-6501 aPL antibody [1] of 140 µg/mL.

One may read the Ki as a dissociation constant, usually derived from enzyme kinetics or from competition with a known ligand. For the molecule GPCILLARDRCG (disulfide 3-11 (inferred)) [CB2* …], in the assay with ACA-6701 aPL antibody [12], the fold improvement in binding against CB2*-F was 14 fold. This molecule also showed a Ki with ACA-6701 aPL antibody [13] of 35 nM.

AGPCLLLAPDRCPG [peptide ACA-6501/3B10 … (monomer)] came in with a fold weaker binding against CB2* with ACA-6701 aPL antibody [12] of 9 fold. The Ki with ACA-6701 aPL antibody [13] was found to be 313 nM. For the same molecule, the percent inhibition stood at 47% with ACA-7005 aPL antibody [14]; 76% with ACA-6626 aPL antibody [15]; 87% with ACA-7004 aPL antibody [16]; 52% in the assay with ACA-6641 aPL antibody [17]; 69% with ACA-6903 aPL antibody [18]; 51% with ACA-6701 aPL antibody [19]. Besides, the values for the percent inhibition in the assay with ACA-6501 aPL antibody [20], with ACA-6644 aPL antibody [21] and in the assay with ACA-6638 aPL antibody [22] were 60%, 55% and 87%, respectively. Also, the percent inhibition (Ave.) in assay [23] is 65%.

On to CLGVLG[dK]LC (not fully specified (bridges); cysteine pairing not given here) [3G3 D amino acids 5: CLGVLG-dK-LC], for which, in the assay with ACA-6501 aPL antibody [1], the IC50 came out at 170 µg/mL.

In turn, CLGVL[Sar]KLC (not fully specified (bridges); cysteine pairing not given here) [3G3 N-Me amino acids 6: CLGVL-nG-KLC] came in with an IC50 with ACA-6501 aPL antibody [1] of 550 µg/mL.

As for CLGVLGK[dL]C (not fully specified (bridges); cysteine pairing not given here) [3G3 D amino acids 6: CLGVLGK-dL-C], in the assay with ACA-6501 aPL antibody [1], the IC50 was 140 µg/mL.

Consider CL[Sar]VLGKLC (not fully specified (bridges); cysteine pairing not given here) [3G3 N-Me amino acids 3: CL-nG-VLGKLC], for which, in the assay with ACA-6501 aPL antibody [1], the IC50 was 70 µg/mL.

CLGVLGK[NMeL]C (not fully specified (bridges); cysteine pairing not given here) [3G3 N-Me amino acids 8: CLGVLGK-nL-C] had an IC50 with ACA-6501 aPL antibody [1] of 240 µg/mL.

CLGV[dL]GKLC (not fully specified (bridges); cysteine pairing not given here) [3G3 D amino acids 4: CLGV-dL-GKLC] gave an IC50 in the assay with ACA-6501 aPL antibody [1] of 230 µg/mL.

Consider AGPLSDPGYVRNIFHPG [peptide ACA-6701/3B1 …], for which the percent inhibition with ACA-7005 aPL antibody [14] is 23%; with ACA-6626 aPL antibody [15], 43%; with ACA-7004 aPL antibody [16] it was 72%; with ACA-6641 aPL antibody [17], 43%; with ACA-6903 aPL antibody [18], 51%; with ACA-6701 aPL antibody [19] it was 96%. The percent inhibition with ACA-6501 aPL antibody [20] was 41%; with ACA-6644 aPL antibody [21], 37%; with ACA-6638 aPL antibody [22], 65%. For the same molecule, the percent inhibition (Ave.) in assay [23] stood at 52%.

In the assay with ACA-6501 aPL antibody [1], CLG[dV][dL]GKLC (not fully specified (bridges); cysteine pairing not given here) [3G3 D amino acids 10: CLG-dV-dL-GKLC] returned an IC50 of 50 µg/mL.

Turning to CLGVLGKLC (not fully specified; C-terminal ATU-Y as printed (ATU linker, then Tyr)) [3G3 others 1: …-ATU-Y], in the assay with ACA-6501 aPL antibody [1], the IC50 is 300 µg/mL.

Molecule CLGVLG[dL][dL]C (not fully specified (bridges); cysteine pairing not given here) [3G3 D amino acids 21: CLGVLG-dL-dL-C] returned an IC50 in the assay with ACA-6501 aPL antibody [1] of 140 µg/mL.

In turn, CLG[NMeV]LGKLC (not fully specified (bridges); cysteine pairing not given here) [3G3 N-Me amino acids 4: CLG-nV-LGKLC] showed an IC50 with ACA-6501 aPL antibody [1] of 220 µg/mL.

Consider CLGV[NMeL]GKLC (not fully specified (bridges); cysteine pairing not given here) [3G3 N-Me amino acids 5: CLGV-nL-GKLC], for which the IC50 with ACA-6501 aPL antibody [1] worked out at 180 µg/mL.
